# Numbered stars: 1 amine (or outer) side, 2 acyl side, 3 side chain; on linkers, the order of the positions; unused ones are H or OH. Bridge positions count the residues as written; N and C are the ends. Side chains are listed from the residue outwards. Ends that are not written are not given here. * marks the point of attachment. C20 diacid = O=C(O)CCCCCCCCCCCCCCCCCCC(=O)*; γGlu = O=C(O)[C@H](CCC(=O)[*:2])N[*:1]; AEEA = NCCOCCOCC(=O)O
# B1: N^α1-[2-[2-[2-[[2-[2-[2-[[(4S)-4-carboxy-4-(19-carboxynonadecanoylamino)butanoyl]amino]ethoxy]ethoxy]acetyl]amino]ethoxy]ethoxy]acetyl]-[Arg17,Pro21,Pro27]-h-am … (peptide)
# peptide: KCNTATCATQRLANFLRHSSPNFGAIPSSTNVGSNTY
# modifications: C20 diacid-gGlu-2xOEG on the alpha amino group of the N-terminal residue (Lys 1); disulfide bridge between the two Cys residues; C-terminal amide
# notes: analogue of human amylin; also called compound 24
# B2: N^α1-[(4S)-4-carboxy-4-(19-carboxynonadecanoylamino)butanoyl]-[Glu14,Arg17,Pro21,Pro25,Pro28,Pro29]-h-amylin (peptide)
# peptide: {C20 diacid-γGlu}-KCNTATCATQRLAEFLRHSSPNFGPILPPTNVGSNTY-NH2
# modifications: disulfide 2-7 (inferred)
# notes: analogue of human amylin; also called compound 6
# B3: N^α1N^α1-[(4S)-4-carboxy-4-(19-carboxynonadecanoylamino)butanoyl]-[Glu14,Arg17,Pro21,Pro27,Glu35]-h-amylin (peptide)
# peptide: {C20 diacid-γGlu}-KCNTATCATQRLAEFLRHSSPNFGAIPSSTNVGSETY-NH2
# modifications: disulfide 2-7 (inferred)
# notes: analogue of human amylin; the name is printed with N^α1 twice; also called compound 22
# B4: N^ε1-[(4S)-4-carboxy-4-[[(4S)-4-carboxy-4-(19-carboxynonadecanoylamino)butanoyl]amino]butanoyl]-[Asp14,Arg17,Pro22,Pro26,Asp35]-h-amylin (peptide)
# peptide: K([γGlu-γGlu-C20 diacid])CNTATCATQRLADFLRHSSNPFGAPLSSTNVGSDTY-NH2
# modifications: disulfide 2-7 (inferred)
# notes: analogue of human amylin; also called compound 3
# B5: N^ε1-[2-[2-[2-[[(4S)-4-carboxy-4-(19-carboxynonadecanoylamino)butanoyl]amino]ethoxy]ethoxy]acetyl]-[Arg17,Pro21,Pro27,Pro31]-h-amylin (peptide)
# peptide: K([AEEA-γGlu-C20 diacid])CNTATCATQRLANFLRHSSPNFGAIPSSTPVGSNTY-NH2
# modifications: disulfide 2-7 (inferred)
# notes: analogue of human amylin; also called compound 49
# B6: N^ε1-[2-[2-[2-[[(4S)-4-carboxy-4-(19-carboxynonadecanoylamino)butanoyl]amino]ethoxy]ethoxy]acetyl]-[Arg17,Pro21,Pro27,Glu35]-h-amylin (peptide)
# peptide: K([AEEA-γGlu-C20 diacid])CNTATCATQRLANFLRHSSPNFGAIPSSTNVGSETY-NH2
# modifications: disulfide 2-7 (inferred)
# notes: analogue of human amylin; also called compound 26
# B7: N^ε1-[(4S)-4-carboxy-4-[[(4S)-4-carboxy-4-(19-carboxynonadecanoylamino)butanoyl]amino]butanoyl]-[Asp14,Arg17,Pro21,Pro27,Asp35]-h-amylin (peptide)
# peptide: K([γGlu-γGlu-C20 diacid])CNTATCATQRLADFLRHSSPNFGAIPSSTNVGSDTY-NH2
# modifications: disulfide 2-7 (inferred)
# notes: analogue of human amylin; also called compound 2
# B8: N^ε1-[(4S)-4-carboxy-4-(19-carboxynonadecanoylamino)butanoyl]-[Glu14,Arg17,Pro21,Pro27,Arg35]-h-amylin (peptide)
# peptide: K([γGlu-C20 diacid])CNTATCATQRLAEFLRHSSPNFGAIPSSTNVGSRTY-NH2
# modifications: disulfide 2-7 (inferred)
# notes: analogue of human amylin; also called compound 51
# B9: N^ε1-[(4S)-4-carboxy-4-[[(4S)-4-carboxy-4-(19-carboxynonadecanoylamino)butanoyl]amino]butanoyl]-[Asp14,Arg17,Pro21,Pro26,Asp35]-h-amylin (peptide)
# peptide: K([γGlu-γGlu-C20 diacid])CNTATCATQRLADFLRHSSPNFGAPLSSTNVGSDTY-NH2
# modifications: disulfide 2-7 (inferred)
# notes: analogue of human amylin; also called compound 1
# B10: N^ε1-[2-[2-[2-[[2-[2-[2-[[(4S)-4-carboxy-4-(19-carboxynonadecanoylamino)butanoyl]amino]ethoxy]ethoxy]acetyl]amino]ethoxy]ethoxy]acetyl]-[Arg17,Pro21,Pro27,Glu35 … (peptide)
# peptide: K([AEEA-AEEA-γGlu-C20 diacid])CNTATCATQRLANFLRHSSPNFGAIPSSTNVGSETY-NH2
# modifications: disulfide 2-7 (inferred)
# notes: analogue of human amylin; also called compound 25
# B11: N{Alpha-1}-[(4S)-4-carboxy-4-(19-carboxynonadecanoylamino)butanoyl]-[Glu14,Arg17,Pro21,Pro27,Lys34]-h-amylin (peptide)
# peptide: {C20 diacid-γGlu}-KCNTATCATQRLAEFLRHSSPNFGAIPSSTNVGKNTY-NH2
# modifications: disulfide 2-7 (inferred)
# notes: analogue of human amylin; also called compound 36
# B12: N^ε1-[2-[2-[2-[[(4S)-4-carboxy-4-(19-carboxynonadecanoylamino)butanoyl]amino]ethoxy]ethoxy]acetyl]-[Arg17,Pro21,Pro27,Pro34]-h-amylin (peptide)
# peptide: K([AEEA-γGlu-C20 diacid])CNTATCATQRLANFLRHSSPNFGAIPSSTNVGPNTY-NH2
# modifications: disulfide 2-7 (inferred)
# notes: analogue of human amylin; also called compound 50
# B13: N^ε1-[(4S)-4-carboxy-4-(19-carboxynonadecanoylamino)butanoyl]-[Arg17,Pro21,Pro27,Lys35]-h-amylin (peptide)
# peptide: K([γGlu-C20 diacid])CNTATCATQRLANFLRHSSPNFGAIPSSTNVGSKTY-NH2
# modifications: disulfide 2-7 (inferred)
# notes: analogue of human amylin; also called compound 35
# B14: N^ε1-[(4S)-4-carboxy-4-(19-carboxynonadecanoylamino)butanoyl]-[Arg17,Pro21,Pro27,Glu35]-h-amylin (peptide)
# peptide: K([γGlu-C20 diacid])CNTATCATQRLANFLRHSSPNFGAIPSSTNVGSETY-NH2
# modifications: disulfide 2-7; N-terminus assumed
# SMILES: CC[C@H](C)[C@H](NC(=O)[C@H](C)NC(=O)CNC(=O)[C@H](Cc1ccccc1)NC(=O)[C@H](CC(N)=O)NC(=O)[C@@H]1CCCN1C(=O)[C@H](CO)NC(=O)[C@H](CO)NC(=O)[C@H](Cc1c[nH]cn1)NC(=O)[C@H](CCCNC(=N)N)NC(=O)[C@H](CC(C)C)NC(=O)[C@H](Cc1ccccc1)NC(=O)[C@H](CC(N)=O)NC(=O)[C@H](C)NC(=O)[C@H](CC(C)C)NC(=O)[C@H](CCCNC(=N)N)NC(=O)[C@H](CCC(N)=O)NC(=O)[C@@H](NC(=O)[C@H](C)NC(=O)[C@@H]1CSSC[C@H](NC(=O)[C@@H](N)CCCCNC(=O)CC[C@H](NC(=O)CCCCCCCCCCCCCCCCCCC(=O)O)C(=O)O)C(=O)N[C@@H](CC(N)=O)C(=O)N[C@@H]([C@@H](C)O)C(=O)N[C@@H](C)C(=O)N[C@@H]([C@@H](C)O)C(=O)N1)[C@@H](C)O)C(=O)N1CCC[C@H]1C(=O)N[C@@H](CO)C(=O)N[C@@H](CO)C(=O)N[C@H](C(=O)N[C@@H](CC(N)=O)C(=O)N[C@H](C(=O)NCC(=O)N[C@@H](CO)C(=O)N[C@@H](CCC(=O)O)C(=O)N[C@H](C(=O)N[C@@H](Cc1ccc(O)cc1)C(N)=O)[C@@H](C)O)C(C)C)[C@@H](C)O
# notes: analogue of human amylin; also called compound 27
# Molecular target: T1, rat calcitonin receptor (rat, UniProt P32214 25-516)
# T1 construct: whole, on cells; membranes of transiently transfected BHK tk'ts 13 cells (Assay VIII); also called rCTR; rat calcitonin (a) receptor
# T1 sequence (looked up): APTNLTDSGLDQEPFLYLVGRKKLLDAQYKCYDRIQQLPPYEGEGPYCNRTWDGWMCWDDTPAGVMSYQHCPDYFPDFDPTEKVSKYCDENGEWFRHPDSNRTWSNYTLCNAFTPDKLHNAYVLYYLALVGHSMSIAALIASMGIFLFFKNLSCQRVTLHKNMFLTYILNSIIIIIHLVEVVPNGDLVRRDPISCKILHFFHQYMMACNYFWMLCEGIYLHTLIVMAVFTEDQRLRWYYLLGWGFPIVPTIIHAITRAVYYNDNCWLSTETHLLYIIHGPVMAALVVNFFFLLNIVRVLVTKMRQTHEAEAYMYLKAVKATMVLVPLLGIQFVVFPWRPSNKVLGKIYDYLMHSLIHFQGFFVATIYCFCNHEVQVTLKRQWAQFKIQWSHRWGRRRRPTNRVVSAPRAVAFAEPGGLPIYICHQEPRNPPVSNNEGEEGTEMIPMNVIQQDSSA
# Experiment: IC50 on rat calcitonin receptor divided by IC50 on rat amylin receptor (SPA competition)
row,Binder,Ratio rCT/rAmylin binding
1,B1,116
2,B2,21.7
3,B3,28.5
4,B4,16.7
5,B5,47.7
6,B6,309
7,B7,366
8,B8,119
9,B9,104
10,B10,37.7
11,B11,32.4
12,B12,81.7
13,B13,65.1
14,B14,147

# Molecular target: T2, human calcitonin receptor (human, UniProt P30988 25-474)
# T2 construct: whole, on cells; membranes of stably transfected BHK cells (Assay VII); also called hCTR; hCT
# T2 sequence (looked up): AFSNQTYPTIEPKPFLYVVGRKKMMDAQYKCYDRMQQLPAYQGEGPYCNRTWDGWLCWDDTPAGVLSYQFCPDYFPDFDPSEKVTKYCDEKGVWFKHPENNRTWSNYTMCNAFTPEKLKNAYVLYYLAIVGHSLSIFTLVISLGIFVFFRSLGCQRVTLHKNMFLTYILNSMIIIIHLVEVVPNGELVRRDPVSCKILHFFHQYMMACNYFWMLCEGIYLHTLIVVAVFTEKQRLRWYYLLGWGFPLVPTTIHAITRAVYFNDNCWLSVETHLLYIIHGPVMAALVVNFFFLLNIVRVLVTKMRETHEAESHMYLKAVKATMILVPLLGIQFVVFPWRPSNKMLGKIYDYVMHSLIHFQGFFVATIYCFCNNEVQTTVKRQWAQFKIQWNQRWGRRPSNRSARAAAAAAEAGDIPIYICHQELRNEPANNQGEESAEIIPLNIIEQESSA
# Experiment: IC50 on human calcitonin receptor divided by IC50 on human amylin receptor (SPA competition)
# Description: The resulting pellet was resuspended, homogenized and centrifuged (20.000 rpm, 15 min) in a buffer containing 20 mM Na-HEPES and 0.1 mM EDTA (pH 7.4, buffer 2). The resulting pellet was resuspended in buffer 2 and protein concentration was measured (BCA protein Assay, Pierce). The homogenate was kept cold during the whole procedure. The membranes were kept at −80° C. until use. The assay was performed in a 384 well Optiplate (PerkinElmer) in a total volume of 40 ul. Membranes were mixed with SPA beads. Final concentration of membranes 35 ng/μL final and SPA beads was 0.05 mg/well. Test-compounds were dissolved in DMSO and further diluted in assay buffer (50 mM Hepes, pH 7.4, 1 mM CaCl2, 5 mM MgCl₂, 0.1% OA and 0.02% Tween20). […] The final mixture was incubated with shaking at 400 rpm for 120 min at 25° C. prior to centrifugation (1500 rpm, 10 min). Samples were analyzed on TopCounter™ (Packard). The IC₅₀ was calculated using (one site binding competition analysis) GraphPad Prism5 as a measure of receptor affinity.
# Membranes were prepared in the following way; the cells were rinsed with PBS and incubated with Versene for approximately 5 min before harvesting. The cells were flushed with PBS and the cell-suspension was centrifuged for 5 min at 1000 rpm. Cells were homogenized (Ultrathurrax) in a buffer containing 20 mM Na-HEPES and 10 mM EDTA (pH 7.4) and centrifuged at 20.000 rpm for 15 min. The resulting pellet was resuspended, homogenized and centrifuged (20.000 rpm, 15 min) in a buffer containing 20 mM Na-HEPES and 0.1 mM EDTA (pH 7.4, buffer 2). The resulting pellet was resuspended in buffer 2 and protein concentration was measured (BCA protein Assay, Pierce). The homogenate was kept cold during the whole procedure. The membranes were kept at −80° C. until use. Assay was performed in a 384 well Optiplate (PerkinElmer) in a total volume of 40 ul. Membranes were mixed with SPA beads.
row,Binder,Ratio hCT/hAmylin binding
1,B1,90
2,B2,20
3,B3,12.3
4,B4,17.3
5,B5,10.8
6,B6,47.5
7,B7,47.5
8,B8,37.5
9,B9,27.6
10,B10,56.5
11,B11,15.7
12,B12,36
13,B13,50.3
14,B14,41.3

# Molecular target: T1, rat calcitonin receptor
# Experiment: SPA competition with 125I-calcitonin, membranes of BHK cells with rat calcitonin receptor (Assay VIII)
row,Binder,IC50 [nM]
1,B1,350
2,B2,51.5
3,B3,62.5
4,B4,16.7
5,B5,51.4
6,B6,152
7,B7,108
8,B8,62
9,B9,135
10,B10,131
11,B11,60.1
12,B12,5.63
13,B13,61.7
14,B14,90.2

# Molecular target: T3, rat amylin receptor (rat calcitonin receptor + rat RAMP 3) (rat, UniProt P32214 25-516; Q9JJ73 23-147)
# T3 construct: whole, on cells; membranes of transiently transfected BHK tk'ts 13 cells (Assay VI); also called rAmylin-R; rat amylin 3(a) receptor
# T3 sequence (looked up) 1: T1 sequence (looked up)
# T3 sequence (looked up) 2: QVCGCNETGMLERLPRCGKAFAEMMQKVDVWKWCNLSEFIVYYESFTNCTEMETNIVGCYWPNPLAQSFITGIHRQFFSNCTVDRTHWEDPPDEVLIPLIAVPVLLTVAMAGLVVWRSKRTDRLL
# Experiment: SPA competition with 125I-rat amylin, membranes of BHK cells with rat calcitonin receptor + rat RAMP3 (Assay VI)
row,Binder,IC50 [nM]
1,B1,3.01
2,B2,2.37
3,B3,2.19
4,B4,1
5,B5,1.08
6,B6,0.491
7,B7,0.295
8,B8,0.523
9,B9,1.3
10,B10,3.48
11,B11,1.86
12,B12,0.069
13,B13,0.948
14,B14,0.614

# Source: US20140087995A1 (published 2014)
